This note sets out measurements from the supplement of paper PMC12764529.

± gives the half width of the 95% confidence interval.

Data set [1] can be described thus: folding stability dG unfold from trypsin proteolysis; higher = more stable. A digest of the protocol:
(§1)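 How resistant each design was to proteolysis was captured as K50, inferred by Bayesian fitting of sequencing counts. Unfolding free energy was then derived relative to a sequence-predicted unfolded-state K50 and a shared folded-state K50, per protease or combined. Digestion used trypsin and chymotrypsin at 11 threefold-diluted concentrations plus a no-protease condition, on mini-proteins under 80 residues without cysteine in a PA-tagged cDNA display construct. Designs were kept only when AlphaFold2 dimer inter-PAE was above 15.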

Data set [2] can be described thus: folding stability dG unfold from chymotrypsin proteolysis; higher = more stable. A digest of the protocol: as §1
Data set [3] in a line: folding stability dG unfold (combined trypsin and chymotrypsin); higher = more stable. A digest of the protocol: as §1

Take “SAGGSAGGSEEREYVEVEFEFLARLEDGSLLVTRVRLLLPAEPAELRPEVRSEVLPLAPGEELSAGGSAGGS [r12_811_TrMRF]”: the “folding stability dG unfold” value in data set [1] amounted to 1.48 ± 0.071 kcal/mol; in data set [2], 2.7 ± 0.063 kcal/mol; in data set [3], 2.22 ± 0.16 kcal/mol.
In the same order, the values of “SAGGSAGGSEFYVIKIKNPETKKEIELVFEGSEEEIKAAIEELAKKPNLKIEIKKIKVSKEELSAGGSAGGS [r12_92_TrROS_Hall]” are 1.43 ± 0.085 kcal/mol, 1.78 ± 0.074 kcal/mol and 1.89 ± 0.18 kcal/mol.
The like results for “SAGGSAGGSEITILIKDENGYLIKVKVELKLKKNKDGKKTLELKIEITEIYKVPSKEEAKKLLSAGGSAGGS [r12_915_TrROS_Hall]” were, in that order, 0.755 ± 0.1 kcal/mol, 2.08 ± 0.11 kcal/mol and 1.78 ± 0.22 kcal/mol.
In the same order, the values of “SAGGSAGGSEKEIVLVVKSKEDALKAAEELAKALGLEVEVEVIEVKTLENGEKYVVVKITIKDSAGGSAGGS [r12_924_TrROS_Hall]” are 3.75 ± 0.16 kcal/mol, 3.7 ± 0.091 kcal/mol and 3.74 ± 0.2 kcal/mol.
For the sequence “SAGGSAGGSEKPVLIVKVKVKNPKTKKWEEKTIEVPEGVKTPEEVAKALEKEFGDVVKVEILPSAGGSAGGS [r12_942_TrROS_Hall]”, the “folding stability dG unfold” value in data set [1] was found to be 1.25 ± 0.064 kcal/mol; in data set [2], 1.86 ± 0.11 kcal/mol; in data set [3], 1.63 ± 0.19 kcal/mol.
Take “SAGGSAGGSEKTLVTRTPDGYLLTLTEFTLPDGSKVTLATITFPNTGKTVTVPASLVPADATGSAGGSAGGS [r12_797_TrMRF]”: the entries for the “folding stability dG unfold” value in data set [1], in data set [2] and in data set [3] were 1.45 ± 0.028 kcal/mol, 3.061 ± 0.011 kcal/mol and 2.63 ± 0.041 kcal/mol, respectively.
Consider “SAGGSAGGSELPDGPALVVLPINSKPVVALAKVNSTGKIEVYIPNPGKKFTFDLDQAEVYPVLSAGGSAGGS [r12_782_TrMRF]”, for which the “folding stability dG unfold” value is -0.1 ± 0.082 kcal/mol in data set [1], 0.533 ± 0.1 kcal/mol in data set [2] and 0.35 ± 0.061 kcal/mol in data set [3].
The like results for “SAGGSAGGSEVEITVTETEDTVTVTIRFKDTGKTVTITVPKDMTPEEVLARAKELLKKLGIEPSAGGSAGGS [r12_764_TrROS_Hall]” were, in that order, 3.91 ± 0.18 kcal/mol, 3.75 ± 0.16 kcal/mol and 3.88 ± 0.25 kcal/mol.
In the case of “SAGGSAGGSEVKTKVTLKREDPGSASTSTVDLPKEEAEKLIKEGKEIKLPSGKKASFTKVVPESAGGSAGGS [r12_432_JUSTAS]”, the “folding stability dG unfold” value was -0.195 ± 0.11 kcal/mol in data set [1], -0.18 ± 0.24 kcal/mol in data set [2] and -0.148 ± 0.2 kcal/mol in data set [3].
The like results for “SAGGSAGGSEYYIYIQIDKNGKIEIVDVVPPGEPMEDMPPEQYDHTIMFPFESPEDALAEILKSAGGSAGGS [r12_452_TrROS]” were, in that order, 0.606 ± 0.019 kcal/mol, 0.731 ± 0.022 kcal/mol and 0.719 ± 0.075 kcal/mol.
In the same order, the values of “SAGGSAGGSFKVPGGYKVVSVEEDPENKTVEITFADGSKLTIDIEDPNVFKPVKVEAPEGFDVSAGGSAGGS [r12_149_TrMRF]” are 1.55 ± 0.081 kcal/mol, 2.04 ± 0.038 kcal/mol and 1.89 ± 0.054 kcal/mol.
The like results for “SAGGSAGGSGAEEIAKALKELGVKKVEITVERNENGELTVTVRVEVEAPPPKVEVKTEEELKKSAGGSAGGS [r12_246_TrROS_Hall]” were, in that order, 0.527 ± 0.1 kcal/mol, 1.01 ± 0.14 kcal/mol and 0.939 ± 0.21 kcal/mol.
Take “SAGGSAGGSGDGDYKNDPNGEQERKPKPPPVPPILVFKVELDIDANGNLDLSPDLGWFPPDAISAGGSAGGS [r12_1027_TrROS]”: the “folding stability dG unfold” value stood at 1.55 ± 0.13 kcal/mol in data set [1], 1.03 ± 0.093 kcal/mol in data set [2] and 1.42 ± 0.14 kcal/mol in data set [3].
With “SAGGSAGGSGDSITLPVSVPKGSELVIENLSTNKKVIIPDDGPVTITIDKGKDGLKISAEVEKSAGGSAGGS [r12_919_TrMRF]”, the “folding stability dG unfold” value in data set [1] was -0.398 ± 0.16 kcal/mol; in data set [2], 0.106 ± 0.053 kcal/mol; in data set [3], -0.0498 ± 0.25 kcal/mol.
